Data on five molecules can be found in patent US20120316071A1 (published 2012).

The target of experiment [1] is T1, rHuman EGF R/Fc Chimera, CF (R&D Systems Cat#344-ER) (human, UniProt P00533 25-645).
T1 construct: Bought recombinant Fc chimera; also called epidermal growth factor receptor; Fc part of the bought chimera not given
Put plainly: MSD Multispot ECL, antigen spotted on plate, Fab in solution; blank spot of the row 240.

For experiment [2], the target named is T2, rHuman HGF R/c-MET/Fc Chimera, CF (R&D Systems Cat#358-MT/CF) (human, UniProt P08581 25-932).
T2 construct: Bought recombinant Fc chimera; also called HGF R/Fc; hepatocyte growth factor receptor; Fc part of the bought chimera not given
T2 sequence (P08581 25-932, change not shown): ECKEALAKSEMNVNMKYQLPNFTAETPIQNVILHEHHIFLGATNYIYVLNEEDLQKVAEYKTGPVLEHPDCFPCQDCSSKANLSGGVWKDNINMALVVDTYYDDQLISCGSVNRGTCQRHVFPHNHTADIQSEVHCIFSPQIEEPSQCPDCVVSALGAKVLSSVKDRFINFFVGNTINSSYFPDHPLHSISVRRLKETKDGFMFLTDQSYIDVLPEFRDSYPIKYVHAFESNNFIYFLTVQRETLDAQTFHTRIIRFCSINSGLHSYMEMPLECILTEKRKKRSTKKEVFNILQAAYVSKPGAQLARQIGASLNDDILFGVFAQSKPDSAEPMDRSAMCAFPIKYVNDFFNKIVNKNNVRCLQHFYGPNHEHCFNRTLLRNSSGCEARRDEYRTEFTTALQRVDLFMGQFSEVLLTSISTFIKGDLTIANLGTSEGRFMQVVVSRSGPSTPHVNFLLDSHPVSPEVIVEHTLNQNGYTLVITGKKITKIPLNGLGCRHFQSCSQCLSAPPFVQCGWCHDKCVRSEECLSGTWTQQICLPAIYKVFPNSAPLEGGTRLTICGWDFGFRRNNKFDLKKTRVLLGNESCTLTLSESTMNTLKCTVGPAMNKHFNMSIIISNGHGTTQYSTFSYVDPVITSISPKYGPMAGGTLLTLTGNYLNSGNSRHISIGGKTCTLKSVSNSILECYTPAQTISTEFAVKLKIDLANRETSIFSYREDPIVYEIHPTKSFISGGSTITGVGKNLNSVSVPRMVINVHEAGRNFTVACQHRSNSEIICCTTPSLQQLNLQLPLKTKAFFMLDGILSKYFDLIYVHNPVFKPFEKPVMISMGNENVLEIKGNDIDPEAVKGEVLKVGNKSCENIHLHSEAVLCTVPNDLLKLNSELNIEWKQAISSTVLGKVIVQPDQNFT
The description is as above.

The target in experiment [3] is T3, rHuman Notch-1/Fc Chimera, CF (R&D Systems Cat#3647-TK) (human, UniProt P46531 19-526).
T3 construct: Bought recombinant Fc chimera; Fc part of the bought chimera not given
The experiment is described as above.

Experiment [4] concerns the target T4, rHuman P-Cadherin/Fc Chimera, CF (R&D Systems Cat#861-PC) (human, UniProt P22223 108-654).
T4 construct: Bought recombinant Fc chimera; Fc part of the bought chimera not given
Described as above.

The target in experiment [5] is T5, rHuman Erythropoietin R/Fc Chimera, CF (R&D Systems Cat#963-ER) (human, UniProt P19235 25-250).
T5 construct: Bought recombinant Fc chimera; also called EPO R; EPO R/Fc; Fc part of the bought chimera not given
T5 sequence (looked up): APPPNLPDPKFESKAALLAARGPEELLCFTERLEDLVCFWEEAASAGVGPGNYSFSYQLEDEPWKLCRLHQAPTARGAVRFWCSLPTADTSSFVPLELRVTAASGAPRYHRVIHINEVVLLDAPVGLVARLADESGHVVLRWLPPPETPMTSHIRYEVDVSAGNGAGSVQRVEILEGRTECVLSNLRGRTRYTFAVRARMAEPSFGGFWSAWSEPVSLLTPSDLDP
The description is as above.

Experiment [6] deals with T6, Recombinant Human DLL4 (R&D Systems Cat#1506-D4/CF) (human, UniProt Q9NR61 27-524).
T6 construct: Bought recombinant protein; also called delta-like protein 4; Delta-like 4
The description is as above.

Experiment [7] concerns the target T1, rHuman EGF R/Fc Chimera, CF (R&D …). Briefly: MSD Multispot ECL, antigen spotted on plate, Fab in solution; blank spot of the row 424.
In experiment [8] the target is T2, rHuman HGF R/c-MET/Fc Chimera, CF (R&D …). The description is as above.
In experiment [9] the target is T3, rHuman Notch-1/Fc Chimera, CF (R&D …). The experiment is described as above.
Experiment [10] has as its target T4, rHuman P-Cadherin/Fc Chimera, CF (R&D …). The description is as above.
Experiment [11] has as its target T5, rHuman Erythropoietin R/Fc Chimera, CF …. The description is as above.
The target of experiment [12] is T6, Recombinant Human DLL4 (R&D Systems …). The description is as above.
Experiment [13] has as its target T7, Recombinant Human DLL4 (R&D Systems Cat#1506-D4/CF) (human, UniProt Q9NR61 27-524).
T7 construct: Bought recombinant protein; also called rHuman DLL4; delta-like protein 4
Put plainly: ECL (MSD) multispot binding assay, antigen spotted on the plate, Fab in solution; blank spot of this well 213.

Experiment [14] deals with T8, rHuman P-Cadherin/Fc Chimera, CF (R&D Systems Cat#861-PC) (human, UniProt P22223 108-654).
T8 construct: Bought reagent; Fc part of the bought chimera not given
The experiment is described as above.

In experiment [15] the target is T9, rHuman Erythropoietin R/Fc Chimera, CF (R&D Systems Cat#963-ER) (human, UniProt P19235 25-250).
T9 construct: Bought reagent; also called EPO R/Fc; EPO R; Fc part of the bought chimera not given
T9 sequence (looked up): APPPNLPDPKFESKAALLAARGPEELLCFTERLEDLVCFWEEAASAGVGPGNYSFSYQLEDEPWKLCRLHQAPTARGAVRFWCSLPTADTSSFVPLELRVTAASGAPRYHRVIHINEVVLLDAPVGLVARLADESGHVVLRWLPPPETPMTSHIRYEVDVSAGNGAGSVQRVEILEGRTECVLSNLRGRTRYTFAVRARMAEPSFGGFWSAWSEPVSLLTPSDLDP
The experiment is described as above.

Experiment [16] has as its target T10, Recombinant Human DLL4 (delta-like protein 4) (human, UniProt Q9NR61 27-524).
T10 construct: Bought recombinant protein (R&D Systems Cat#1506-D4/CF); also called rHuman DLL4
Briefly: ELISA, DLL4 coated on plate.

The target of experiment [17] is T11, rHuman P-Cadherin/Fc Chimera (human, UniProt P22223 108-654).
T11 construct: R&D Systems Cat#861-PC; not shown: Fc of the bought R&D Systems chimera
Put plainly: ECL (MSD) multispot assay, antigen spotted; blank spot of this row 236.

In experiment [18] the target is T10, Recombinant Human DLL4 (delta-like …). Described as above.
In experiment [19] the target is T12, rHuman EGF R/Fc Chimera (human, UniProt P00533 25-645).
T12 construct: not shown: Fc of the bought R&D Systems chimera
The description is as above.

The target in experiment [20] is T10, Recombinant Human DLL4 (delta-like …). Put plainly: ECL (MSD) multispot binding assay; value equals DLL4 signal over blank of Table 91.
Experiment [21] concerns the target T13, rHuman Notch-1/Fc Chimera (human, UniProt P46531 19-526).
T13 construct: R&D Systems Cat#3647-TK; not shown: Fc of the bought R&D Systems chimera
Put plainly: ECL (MSD) multispot assay, antigen spotted; blank spot of this row 223.

The target in experiment [22] is T11, rHuman P-Cadherin/Fc Chimera. The experiment is described as above.
Experiment [23] deals with T12, rHuman EGF R/Fc Chimera. The experiment is described as above.
Experiment [24] deals with T1, rHuman EGF R/Fc Chimera, CF (R&D …). Put plainly: MSD Multispot ECL, antigen spotted on plate, Fab in solution; blank spot of the row 351.
For experiment [25], the target named is T2, rHuman HGF R/c-MET/Fc Chimera, CF (R&D …). The experiment is described as above.
Experiment [26] addresses T3, rHuman Notch-1/Fc Chimera, CF (R&D …). The experiment is described as above.
The target of experiment [27] is T14, rHuman CD44/Fc Chimera, CF (R&D Systems Cat#3660-CD) (human, UniProt P16070 21-220).
T14 construct: Bought recombinant Fc chimera; Fc part of the bought chimera not given
The experiment is described as above.

Experiment [28] has as its target T4, rHuman P-Cadherin/Fc Chimera, CF (R&D …). Described as above.
In experiment [29] the target is T5, rHuman Erythropoietin R/Fc Chimera, CF …. The description is as above.
Experiment [30] has as its target T6, Recombinant Human DLL4 (R&D Systems …). Described as above.

B1: Fab VH5-51_IGHD5-18*01>3_IGHJ4*01 G100K/G104T (KT) & V3-4_IGLJ1*01 (Fab, V domains shown)
VH: EVQLVQSGAEVKKPGESLKISCKGSGYSFTSYWIGWVRQMPGKGLEWMGIIYPGDSDTRYSPSFQGQVTISADKSISTAYLQWSSLKASDTAMYYCARRKYSYTYDYFDYWGQGTLVTVSS
VL: QTVVTQEPSFSVSPGGTVTLTCGLSSGSVSTSYYPSWYQQTPGQAPRTLIYSTNTRSSGVPDRFSGSILGNKAALTITGAQADDESDYYCVLYMGSGISYVFGTGTKVTVL
notes: Fab made in E. coli; VH cloned into Plasmid A (CH1, His6 and Flag tags), lambda VL into Plasmid E (lambda CL); also called H:KT & L:wt; KT double mutant
Turning to B1, the ECL signal stood at 915 in experiment [1]; 936 in experiment [2]; 507 in experiment [3]; 346 in experiment [4]; 497 in experiment [5]; 45100 in experiment [6]. Moreover, the ECL signal was determined as 852 in [7]; 838 in experiment [8]; 543 in experiment [9]; 319 in experiment [10]; 554 in experiment [11]; 36400 in experiment [12].

B2: Fab VH5-51_IGHD5-18*01>3_IGHJ4*01 G100K/G104T (KT) & V3-4_IGLJ1*01 (Fab, V domains shown)
VH: EVQLVQSGAEVKKPGESLKISCKGSGYSFTSYWIGWVRQMPGKGLEWMGIIYPGDSDTRYSPSFQGQVTISADKSISTAYLQWSSLKASDTAMYYCARRKYSYTYDYFDYWGQGTLVTVSS
VL: QTVVTQEPSFSVSPGGTVTLTCGLSSGSVSTSYYPSWYQQTPGQAPRTLIYSTNTRSSGVPDRFSGSILGNKAALTITGAQADDESDYYCVLYMGSGISYVFGTGTKVTVL
notes: Tested as a Fab expressed in E. coli; The heavy chain variable region was cloned into Plasmid A (CH1 constant region, His6 and Flag tags); The lambda light chain variable region was cloned into Plasmid E (lambda CL); also called H:KT & L:wt; KT double mutant
With B2, the ECL signal was determined as 32700 in [13], 226 in [14] and 421 in [15].

B3: Fab VH5-51_IGHD5-18*01>3_IGHJ4*01 G100K/G104T S84V & V3-4_IGLJ1*01 (Fab, V domains shown)
VH: EVQLVQSGAEVKKPGESLKISCKGSGYSFTSYWIGWVRQMPGKGLEWMGIIYPGDSDTRYSPSFQGQVTISADKSISTAYLQWVSLKASDTAMYYCARRKYSYTYDYFDYWGQGTLVTVSS
VL: QTVVTQEPSFSVSPGGTVTLTCGLSSGSVSTSYYPSWYQQTPGQAPRTLIYSTNTRSSGVPDRFSGSILGNKAALTITGAQADDESDYYCVLYMGSGISYVFGTGTKVTVL
notes: Fab made in E. coli (heavy chain vector with CH1, His6 and Flag tags; lambda CL vector)
For the molecule B3, in experiment [16], the “ELISA (Signal-Noise)” value was 0.02. The ECL signal in [17] came to 362; in experiment [18] it was 8890; in experiment [19], 805. The ECL signal-to-blank ratio in [20] was 37.7.

B4: Fab VH5-51_IGHD5-18*01>3_IGHJ4*01 G100K/G104T S84L & V3-4_IGLJ1*01 (Fab, V domains shown)
VH: EVQLVQSGAEVKKPGESLKISCKGSGYSFTSYWIGWVRQMPGKGLEWMGIIYPGDSDTRYSPSFQGQVTISADKSISTAYLQWLSLKASDTAMYYCARRKYSYTYDYFDYWGQGTLVTVSS
VL: QTVVTQEPSFSVSPGGTVTLTCGLSSGSVSTSYYPSWYQQTPGQAPRTLIYSTNTRSSGVPDRFSGSILGNKAALTITGAQADDESDYYCVLYMGSGISYVFGTGTKVTVL
notes: as for B3
Take B4: the ECL signal in experiment [21] is 410; in [22], 320; in experiment [23], 864.

B5: Fab VH5-51_IGHD5-18*01>3_IGHJ4*01 G100K/G104T T30A & V3-4_IGLJ1*01 (Fab, V domains shown)
VH: EVQLVQSGAEVKKPGESLKISCKGSGYSFASYWIGWVRQMPGKGLEWMGIIYPGDSDTRYSPSFQGQVTISADKSISTAYLQWSSLKASDTAMYYCARRKYSYTYDYFDYWGQGTLVTVSS
VL: QTVVTQEPSFSVSPGGTVTLTCGLSSGSVSTSYYPSWYQQTPGQAPRTLIYSTNTRSSGVPDRFSGSILGNKAALTITGAQADDESDYYCVLYMGSGISYVFGTGTKVTVL
notes: Fab made in E. coli; VH cloned into Plasmid A (CH1, His6 and Flag tags), lambda VL into Plasmid E (lambda CL); also called KT T30A
In the case of B5, the ECL signal in experiment [24] was found to be 853; in experiment [25], 868; in [26], 539; in experiment [27], 698; in [28], 438; in experiment [29], 553. Besides, the ECL signal in experiment [30] is 24300.
